Measured values taken from patent publication US20160346281A1.

Biological target: Myc-tagged Abl (Abl-Myc), Drosophila Abl (Drosophila melanogaster) (UniProt P00522)
Experiment: cell-based or functional assay

Chain of Myc-tagged Abl (Abl-Myc), Drosophila Abl (Drosophila melanogaster) (P00522 whole entry): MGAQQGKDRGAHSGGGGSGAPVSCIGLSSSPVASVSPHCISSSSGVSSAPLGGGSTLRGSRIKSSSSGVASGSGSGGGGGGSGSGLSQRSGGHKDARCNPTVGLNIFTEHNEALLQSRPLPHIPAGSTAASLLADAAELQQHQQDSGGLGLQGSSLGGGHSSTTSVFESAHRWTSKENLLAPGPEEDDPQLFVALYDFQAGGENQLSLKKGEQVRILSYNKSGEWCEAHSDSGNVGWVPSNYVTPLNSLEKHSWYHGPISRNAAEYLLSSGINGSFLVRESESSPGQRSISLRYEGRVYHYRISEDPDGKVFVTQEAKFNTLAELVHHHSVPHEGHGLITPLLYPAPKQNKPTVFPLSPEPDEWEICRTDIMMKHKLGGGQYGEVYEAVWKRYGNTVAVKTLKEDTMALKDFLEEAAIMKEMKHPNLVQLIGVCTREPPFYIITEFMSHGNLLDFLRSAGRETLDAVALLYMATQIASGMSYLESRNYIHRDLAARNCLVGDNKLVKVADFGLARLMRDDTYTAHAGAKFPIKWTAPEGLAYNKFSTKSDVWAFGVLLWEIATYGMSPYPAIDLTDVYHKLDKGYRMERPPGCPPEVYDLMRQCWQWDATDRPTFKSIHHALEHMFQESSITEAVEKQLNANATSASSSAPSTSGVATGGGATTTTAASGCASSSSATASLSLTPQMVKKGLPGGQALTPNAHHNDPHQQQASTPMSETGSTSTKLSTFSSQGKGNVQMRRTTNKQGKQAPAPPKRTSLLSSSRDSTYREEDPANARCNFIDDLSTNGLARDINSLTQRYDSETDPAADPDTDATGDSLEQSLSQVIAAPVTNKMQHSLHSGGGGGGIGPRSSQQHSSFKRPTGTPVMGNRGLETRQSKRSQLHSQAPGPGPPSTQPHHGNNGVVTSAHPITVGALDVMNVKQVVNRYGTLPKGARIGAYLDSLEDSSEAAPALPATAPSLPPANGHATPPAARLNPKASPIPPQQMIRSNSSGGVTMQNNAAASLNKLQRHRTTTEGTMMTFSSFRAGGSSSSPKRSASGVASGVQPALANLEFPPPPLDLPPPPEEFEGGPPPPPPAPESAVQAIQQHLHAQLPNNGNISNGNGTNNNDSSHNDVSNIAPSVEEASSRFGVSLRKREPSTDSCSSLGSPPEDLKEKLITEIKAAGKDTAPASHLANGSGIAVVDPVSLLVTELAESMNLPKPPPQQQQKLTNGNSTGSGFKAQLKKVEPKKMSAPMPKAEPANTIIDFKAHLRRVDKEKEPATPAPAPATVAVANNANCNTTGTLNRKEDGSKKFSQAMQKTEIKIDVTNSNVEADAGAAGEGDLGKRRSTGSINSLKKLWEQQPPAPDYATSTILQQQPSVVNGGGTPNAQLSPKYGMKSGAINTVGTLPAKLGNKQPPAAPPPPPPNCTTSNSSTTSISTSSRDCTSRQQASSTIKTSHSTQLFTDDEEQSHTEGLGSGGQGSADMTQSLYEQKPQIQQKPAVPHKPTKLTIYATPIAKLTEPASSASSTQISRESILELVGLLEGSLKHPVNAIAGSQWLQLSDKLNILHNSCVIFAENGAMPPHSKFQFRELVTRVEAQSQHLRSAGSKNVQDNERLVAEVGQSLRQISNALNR

- Abl kinase activation (anti-phospho-Y412-Abl blot intensity normalized to total Abl-Myc, S2 cell lysates): 2.6 fold
Substance: GFP-tagged Dscam (Dscam[3.36.25.2]::GFP) (receptor)
